Source: the RNAGym collection of RNA variant scans (doi:10.7554/elife.80360)

B1: Twister Ribozyme (parent)
chain: AACACUGCCAAUGCCGGUCCCAAGCCCGGAUAAAAGUGGAGGGGGCGG

Variants of: B1
Experiment: self-cleavage, relative activity (ratio to wild type); higher = more cleavage; co-transcriptional

Variant | self-cleavage
C19U G39C | 0.0962
C19U G39U | 0.125
C19U G41U | 0.125
C19U G42U | 0.142
C19U G43A | 1.04
C19U G43U | 1.02
C19U G44A | 1.03
C19U G44C | 0.608
C19U G44U | 0.86
C19U G45A | 0.915
C19U G45C | 0.38
C19U G47C | 0.235
C19U G48A | 0.915
C19U U31A | 0.682
C19U U31C | 0.971
C19U U31G | 0.956
C19U U37C | 0.242
C20A A22G | 0.0601
C20A A22U | 0.0761
C20A A23C | 0.1
C20A A30C | 0.109

Variant | self-cleavage
C20A A30U | 0.175
C20A A32U | 0.186
C20A A33C | 0.0903
C20A A33G | 0.116
C20A A34C | 0.102
C20A A35C | 0.191
C20A A35U | 0.151
C20A C21A | 0.0664
C20A C21G | 0.0829
C20A C21U | 0.0931
C20A C25A | 0.0826
C20A C26A | 0.0889
C20A C26U | 0.0622
C20A C27A | 0.0891
C20A C27G | 0.0759
C20A C27U | 0.0852
C20A C46A | 0.0788
C20A C46U | 0.154
C20A G24A | 0.114
C20A G24C | 0.0912
C20A G24U | 0.0913

Variant | self-cleavage
C20A G28A | 0.0974
C20A G28C | 0.125
C20A G28U | 0.0952
C20A G29C | 0.0857
C20A G29U | 0.103
C20A G36A | 0.0747
C20A G38C | 0.0639
C20A G38U | 0.0791
C20A G39C | 0.0811
C20A G39U | 0.0846
C20A G41C | 0.0888
C20A G41U | 0.0817
C20A G42A | 0.107
C20A G42U | 0.668
C20A G44A | 0.198
C20A G44U | 0.107
C20A G45A | 0.144
C20A G45U | 0.17
C20A G47U | 0.103
C20A G48C | 0.169
C20A U31C | 0.117

Variant | self-cleavage
C20A U31G | 0.177
C20A U37A | 0.0773
C20A U37C | 0.111
C20A U37G | 0.109
C20G A22G | 0.0602
C20G A23G | 0.0348
C20G A30C | 0.0614
C20G A30U | 0.165
C20G A32C | 0.078
C20G A32G | 0.0903
C20G A32U | 0.0524
C20G A33C | 0.0661
C20G A33G | 0.0756
C20G A33U | 0.13
C20G A34C | 0.0838
C20G A35C | 0.14
C20G A40G | 0.104
C20G C21A | 0.0754
C20G C21G | 0.103
C20G C25A | 0.0525
C20G C25U | 0.0692
